Substitutions are numbered along the chain they refer to. Numbers in names are those of the source.

The record followed here is article PMC9408895.

T1: senescence-suppressed protein phosphatase SSPP (His-SSPP)
T1 chain: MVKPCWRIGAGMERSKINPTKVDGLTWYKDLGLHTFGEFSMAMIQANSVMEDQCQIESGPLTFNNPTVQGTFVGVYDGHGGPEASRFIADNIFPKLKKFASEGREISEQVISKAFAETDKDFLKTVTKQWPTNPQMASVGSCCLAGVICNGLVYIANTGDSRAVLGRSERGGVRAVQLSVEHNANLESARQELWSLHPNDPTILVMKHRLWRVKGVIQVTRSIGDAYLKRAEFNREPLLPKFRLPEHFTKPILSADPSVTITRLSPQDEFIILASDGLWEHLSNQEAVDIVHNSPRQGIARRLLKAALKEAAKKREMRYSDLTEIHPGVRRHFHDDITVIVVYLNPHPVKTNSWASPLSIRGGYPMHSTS

B1: GST-AtSARK-CD, cytoplasmic domain of Arabidopsis thaliana senescence-associated receptor-like kinase AtSARK, wild type, Q8VYT3 Y413F (protein)
chain: CWYRKKQRRLLILNLNDKQEEGLQGLGNLRSFTFRELHVYTDGFSSKNILGAGGFGNVYRGKLGDGTMVAVKRLKDINGTSGDSQFRMELEMISLAVHKNLLRLIGYCATSGERLLVYPYMPNGSVASKLKSKPALDWNMRKRIAIGAARGLLFLHEQCDPKIIHRDVKAANILLDECFEAVVGDFGLAKLLNHADSHVTTAVRGTVGHIAPEYLSTGQSSEKTDVFGFGILLLELITGLRALEFGKTVSQKGAMLEWVRKLHEEMKVEELLDRELGTNYDKIEVGEMLQVALLCTQYLPAHRPKMSEVVLMLEGDGLAERWAASHNHSHFYHANISFKTISSLSTTSVSRLDAHCNDPTYQMFGSSAFDDDDDHQPLDSFAMELSGPR
B2: GST-AtSARK-CD, cytoplasmic domain of Arabidopsis thaliana senescence-associated receptor-like kinase AtSARK, wild type, Q8VYT3 S384A (protein)
chain: B1 chain with S125A, F154Y
B3: GST-AtSARK-CD, cytoplasmic domain of Arabidopsis thaliana senescence-associated receptor-like kinase AtSARK, wild type, Q8VYT3 T465A (protein)
chain: B1 chain with F154Y, T206A
B4: GST-AtSARK-CD, cytoplasmic domain of Arabidopsis thaliana senescence-associated receptor-like kinase AtSARK, wild type, Q8VYT3 T465D (protein)
chain: B1 chain with F154Y, T206D
B5: GST-AtSARK-CD, cytoplasmic domain of Arabidopsis thaliana senescence-associated receptor-like kinase AtSARK, wild type, Q8VYT3 S304A (protein)
chain: B1 chain with S45A, F154Y
B6: GST-AtSARK-CD, cytoplasmic domain of Arabidopsis thaliana senescence-associated receptor-like kinase AtSARK, wild type, Q8VYT3 Y473F (protein)
chain: B1 chain with F154Y, Y214F
B7: GST-AtSARK-CD, cytoplasmic domain of Arabidopsis thaliana senescence-associated receptor-like kinase AtSARK, wild type, Q8VYT3 T326A (protein)
chain: B1 chain with T67A, F154Y
B8: GST-AtSARK-CD, cytoplasmic domain of Arabidopsis thaliana senescence-associated receptor-like kinase AtSARK, wild type, Q8VYT3 S304D (protein)
chain: B1 chain with S45D, F154Y
B9: GST-AtSARK-CD, cytoplasmic domain of Arabidopsis thaliana senescence-associated receptor-like kinase AtSARK, wild type, Q8VYT3 T326D (protein)
chain: B1 chain with T67D, F154Y
B10: GST-AtSARK-CD, cytoplasmic domain of Arabidopsis thaliana senescence-associated receptor-like kinase AtSARK, wild type, Q8VYT3 Y473E (protein)
chain: B1 chain with F154Y, Y214E
B11: GST-AtSARK-CD, cytoplasmic domain of Arabidopsis thaliana senescence-associated receptor-like kinase AtSARK, wild type, Q8VYT3 Y413E (protein)
chain: B1 chain with F154E
B12: GST-AtSARK-CD, cytoplasmic domain of Arabidopsis thaliana senescence-associated receptor-like kinase AtSARK, wild type, Q8VYT3 S384D (protein)
chain: B1 chain with S125D, F154Y

For the test, the target named is T1, senescence-suppressed protein …. The test can be described thus: in vitro pull-down (His-SSPP-bound Ni-NTA beads, anti-GST blot). As to conditions: chain shown with the change; 20% pull-down, 10% input loaded; parent: 1.00.
For B1, the ratio to parent stood at 1.16.

For B2, the ratio to parent turned out to be 0.23.

On to B3, for which the ratio to parent was determined as 0.9.

On to B4, for which the ratio to parent came out at 0.88.

Turning to B5, the ratio to parent was determined as 1.08.

On to B6, for which the ratio to parent came to 0.96.

For the molecule B7, the ratio to parent stood at 0.97.

For B8, the ratio to parent was 0.95.

Regarding B9, the ratio to parent worked out at 0.84.

As to B10, the ratio to parent was determined as 0.98.

With B11, the ratio to parent was 0.12.

Consider B12, for which the ratio to parent is 1.04.
